According to PMC3457981, “The Role, Interaction and Regulation of the Velvet Regulator VelB in Aspergillus nidulans”:

T1: GST-AbaA (Aspergillus nidulans, UniProt P20945 1-588)
T1 sequence: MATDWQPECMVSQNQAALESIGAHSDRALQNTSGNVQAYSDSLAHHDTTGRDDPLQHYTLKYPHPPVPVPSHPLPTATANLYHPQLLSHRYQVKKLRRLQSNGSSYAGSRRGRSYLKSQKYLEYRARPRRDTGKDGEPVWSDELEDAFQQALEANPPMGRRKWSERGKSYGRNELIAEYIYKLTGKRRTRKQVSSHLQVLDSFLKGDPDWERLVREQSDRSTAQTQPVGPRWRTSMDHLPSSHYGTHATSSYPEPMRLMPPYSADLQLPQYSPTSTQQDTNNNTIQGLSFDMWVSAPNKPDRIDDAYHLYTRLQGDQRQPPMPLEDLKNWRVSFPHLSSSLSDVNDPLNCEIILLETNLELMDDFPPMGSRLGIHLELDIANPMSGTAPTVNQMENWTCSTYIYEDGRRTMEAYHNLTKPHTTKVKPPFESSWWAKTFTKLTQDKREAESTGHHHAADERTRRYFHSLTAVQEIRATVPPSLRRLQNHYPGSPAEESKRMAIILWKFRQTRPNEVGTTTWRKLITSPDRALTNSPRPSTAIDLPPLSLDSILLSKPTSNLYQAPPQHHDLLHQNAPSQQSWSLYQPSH

B1: velB EMSA probe 2 (dsDNA)
DNA 1: AGCTCCAGCTCCATTCCGCACGGTCATTCCGTTCTCGGCG
DNA 2: CGCCGAGAACGGAATGACCGTGCGGAATGGAGCTGGAGCT
B2: velB EMSA probe 1 (dsDNA)
DNA 1: CAGCTCCATTCCGCACGGTCATTCC
DNA 2: GGAATGACCGTGCGGAATGGAGCTG
B3: vosA EMSA probe 3 (dsDNA)
DNA 1: GTGGTTCCTTACCTCATTCCCGACCTTTTTTGCC
DNA 2: GGCAAAAAAGGTCGGGAATGAGGTAAGGAACCAC

Target: T1, GST-AbaA
Assay: EMSA; 6% glycerol, 12 mM HEPES-KOH pH 7.6, 4 mM Tris-HCl pH 8.0, 1 mM EDTA, 0.5 mM DTT, 0-12 ug poly(dI-dC), ~10 ng probe in 24 ul; RT, 20 min; 6% PAGE, TBE
Conditions: protein: recombinant; tags: N-terminal GST (pGEX-5X-1); label: 32P (5' end, T4 PNK); blunt

Does B1 bind?
Result: binds

Does B2 bind?
Result: binds

Does B3 bind?
Result: binds
